Reference: patent US20120263732A1, “CD40 ANTIBODY FORMULATION AND METHODS” (PFIZER INC., priority 2003, published 2012)
Like-named read-outs stand apart in the source and are kept apart here.

Legend:
[1] = Primate anti-human antibody (PAHA) response; type: in vivo, cynomolgus monkeys; details: all monkeys in the 3, 5, and 10 mg/kg dose groups; 14 to 28 days following administration
Experimental: The observed dose-dependent clearance may be in part due to the binding of 21.4.1 to CD40 receptors that are widely expressed in normal tissues and the subsequent internalization and elimination of the antibody-receptor complex. Development of primate anti-human antibody (PAHA) response may also contribute to the accelerated clearance in some monkeys. PAHA was evaluated only after individual serum concentrations of 21.4.1 reached the lower limit of quantitation (LLOQ, 0.03 μg/mL) since the presence of 21.4.1 in test serum interferes with the assay for PAHA. Anti-21.4.1 antibodies were detected in all monkeys in the 3, 5, and 10 mg/kg dose groups at 14 to 28 days following administration of the antibody.

[2] = biological target: T1, CD40 receptors on human leukocytes (Homo sapiens, UniProt P25942); experiment: 125I-21.4.1 binding to CD40 receptors on human leukocytes; details: 500-fold excess unlabeled 21.4.1; total % specific binding minus % binding to FcR
T1 construct: Human leukocytes from normal donors or cynomolgus leukocytes were isolated from whole blood; endogenous in cells; host or cells: human peripheral blood leukocytes from normal donors
Experimental: (§1) The binding of 21.4.1 to Fc receptors (FcR) on human or cynomolgus peripheral blood leukocytes was determined by using ^125I-21.4.1 and a human IgG1 control mAb. Human leukocytes from normal donors or cynomolgus leukocytes were isolated from whole blood using plasma gel and washed thoroughly to allow dissociation of receptor-bound serum immunoglobulins. Centrifugation through a sucrose cushion was used to separate cell-bound and free antibodies. Studies were performed at 4° C. in the presence of sodium azide to prevent receptor internalization.
(§2) 21.4.1 was tested for specific binding to FcR by using excess unlabeled human IgG2 isotype matched antibody as a competitor. ^125I-21.4.1 specific binding to FcR on human leukocytes (n=5 donors) was −1.0±8.5%, and specific binding to FcR on cynomolgus leukocytes (n=4) was 15±13%. […] The specific binding of the IgG1 control antibody to FcR on human and cynomolgus leukocytes accounted for 56% and 51% of the total bound radioactivity, respectively.

[3] = cynomolgus monkey, in vivo
Experimental: The pharmacokinetic properties of an anti-CD40 antibody (21.4.1) were examined in cynomolgus monkeys following intravenous (IV) administration of a single dose of 1, 3, 5 or 10 mg/kg.

[4] = test system: Fc receptors (FcR) on human peripheral blood leukocytes; experiment: 125I-antibody binding to Fc receptors on human leukocytes; details: 125I-labelled antibody; 4° C., sodium azide; 21.4.1: excess unlabeled human IgG2 competitor, n=5 donors
Experimental: (§3) The binding of an anti-CD40 antibody (21.4.1) to Fc receptors on human and cynomolgus leukocytes was examined.
as §1, §2

[5] = test system: CD40(−) erythroleukemic tumor, K562; experiment: CD40(−) K562 erythroleukemic tumor growth in SCID-beige mice; type: in vivo, human tumor in SCID-beige mice
Experimental: The effects of a CD40 antibody (21.4.1) on the growth of CD40(−) tumors (e.g., erythroleukemia and colon carcinoma) were examined. In particular, K562 tumors were chosen to assess the efficacy of 21.4.1 against a CD40(−) low immunogenic (class I and II negative) tumor.
SCID-beige mice were injected SC with the CD40(−) erythroleukemic tumor, K562 (ATCC CCL-243) alone or in the presence of human peripheral blood T cells and DCs. Animals received a single IP injection of 21.4.1 either at the time of tumor injection or 5 days later using various dose levels.

[6] = test system: Fc receptors (FcR) on cynomolgus peripheral blood leukocytes; experiment: 125I-antibody binding to Fc receptors on cynomolgus leukocytes; details: 125I-labelled antibody; 4° C., sodium azide; 21.4.1: excess unlabeled human IgG2 competitor, n=4
Experimental: as §3, §1, §2

[7] = test system: unstimulated human whole blood; experiment: Whole-blood cytokine release assay
Experimental: An anti-CD40 antibody (21.4.1) was tested for its ability to induce the release of cytokines from unstimulated human whole blood using an in vitro whole blood assay which correlates with induction of antibody-mediated cytokine release in humans. 21.4.1 was tested at 1, 10 and 100 μg/mL, along with a murine anti-human CD3 IgG1 as a positive control that induces cytokine release through an Fc mediated pathway, and LPS as a second positive control that induces cytokines by stimulating macrophages. The donors used included individuals that responded to both the murine antibody and LPS (4 donors), as well as individuals who only responded to the LPS (3 donors). Heparinized whole blood was cultured with 21.4.1 for 5 hours and plasma was collected and analyzed for tumor necrosis factor alpha (TNF-α), interferon gamma (INF-γ) and interleukin-6 (IL-6) by ELISA (using commercially available kits). Cultures were also incubated for 48 hours and analyzed for interleukin-1 beta (IL-1β).

breast tumor, BT 474 = experiment: Established BT 474 breast tumors: antibody and/or cisplatin; type: in vivo, human tumor in SCID-beige mice; details: single IP injection once tumors reached 200 mm^2; antibody 1 mg/kg, cisplatin 2.5 mg/kg; Day 84
Experimental: The therapeutic effects of an anti-CD40 antibody (21.4.1) in preventing the growth of human breast tumors alone and in the presence of cisplatin was examined.
SCID-beige mice were injected SC with the breast tumor, BT 474. The antibody (1 mg/kg, IP) and/or cisplatin (2.5 mg/kg, IP) were administered as a single injection once tumors reached a size of 200 mm^2. Tumor growth was measured on Day 84 after challenge.

[8] = test system: CD40(+) Raji B cell lymphoma; experiment: CD40(+) Raji B cell lymphoma growth in SCID-beige mice; type: in vivo, human tumor in SCID-beige mice
Experimental: SCID-beige mice were injected subcutaneously with the CD40(+) Raji B cell lymphoma (ATCC CCL-86) (SC) followed by a single dose of 21.4.1 (IP) at the time of tumor injection. Some animals were also injected with human T cells and DC. Tumor growth was assessed on Day 21.

T1 sequence (P25942 21-277): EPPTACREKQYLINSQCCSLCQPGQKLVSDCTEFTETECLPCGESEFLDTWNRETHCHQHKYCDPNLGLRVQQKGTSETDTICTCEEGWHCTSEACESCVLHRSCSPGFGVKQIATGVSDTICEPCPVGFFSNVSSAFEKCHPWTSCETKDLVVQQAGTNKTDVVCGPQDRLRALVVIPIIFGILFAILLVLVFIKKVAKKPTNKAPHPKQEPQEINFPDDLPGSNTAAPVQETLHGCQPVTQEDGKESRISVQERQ

21.4.1: human agonist anti-CD40 antibody; amino acid sequences SEQ ID NOs:5-8; hybridoma deposit PTA-3605
anti-21.4.1 antibodies (PAHA) [1]: detected | specific binding to CD40 receptors on human leukocytes [2]: 49% | duration of exposure of ≧0.1 μg/mL [3]: 4 days | volume of distribution at steady state, mean of different doses ([3]; iv): 0.0575 L/kg | AUC(0-∞) ([3]; iv, 1 mg/kg): 298 µg·h/mL | CL ([3]; iv, 1 mg/kg): 3.81 mL/h/kg | Cmax ([3]; iv, 1 mg/kg): ~20000 ng/mL | Vdss ([3]; iv, 1 mg/kg): 0.0757 L/kg | t1/2 ([3]; iv, 1 mg/kg): 18 h | AUC(0-∞) ([3]; iv, 3 mg/kg): 2460 µg·h/mL | CL ([3]; iv, 3 mg/kg): 1.28 mL/h/kg | Vdss ([3]; iv, 3 mg/kg): 0.0459 L/kg | t1/2 ([3]; iv, 3 mg/kg): 33.6 h | AUC(0-∞) ([3]; iv, 5 mg/kg): 4790 µg·h/mL | CL ([3]; iv, 5 mg/kg): 1.04 mL/h/kg | Vdss ([3]; iv, 5 mg/kg): 0.0488 L/kg | t1/2 ([3]; iv, 5 mg/kg): 33.6 h | AUC(0-∞) ([3]; iv, 10 mg/kg): 12500 µg·h/mL | CL ([3]; iv, 10 mg/kg): 0.798 mL/h/kg | Vdss ([3]; iv, 10 mg/kg): 0.0529 L/kg | apparent mean elimination half-life, range over doses ([3]; iv, 10 mg/kg): 18 to 48 h | systemic clearance, range over doses ([3]; iv, 10 mg/kg): 0.798 to 3.81 mL/h/kg | t1/2 ([3]; iv, 10 mg/kg): 48 h | volume of distribution at steady state, range over doses ([3]; iv, 10 mg/kg): 0.0459 to 0.0757 L/kg | specific binding to FcR on human leukocytes [4]: −1.0±8.5% | amount to cause a 50% inhibition of tumor growth (IC50) ([5]; K562 with human T cells and DC, single IP injection, Day 21): 0.005 mg/kg | growth of K562 tumor ([5]; in the absence of immune cells): not inhibited | specific binding to FcR on cynomolgus leukocytes [6]: 15±13% | IL-6 in plasma ([7]; 100 μg/mL, only one donor, 5 hours): 90 pg/mL | cytokines in plasma of human blood ([7]; 1 or 10 μg/mL 21.4.1, ELISA): not detected | elevation of INFγ or IL-1β ([7]; any of the samples, 1, 10 and 100 μg/mL): no elevation | induction of TNF-α or IL-6 on re-test ([7]; same donor re-tested subsequently): no detectable induction | tumor growth, single agent (breast tumor, BT 474): prevented tumor growth | anti-tumor activity against CD40(+) tumors when immune cells were present ([8]; Raji): enhanced | amount necessary to cause a 50% inhibition of tumor growth ([8]; Raji co-injected with immune cells (human T cells and DC), single IP dose, Day 21): 0.001 mg/kg | amount to cause a 50% inhibition of tumor growth (IC50) ([8]; Raji in the absence of immune cells, single IP dose, Day 21): 0.02 mg/kg | decrease of the 50% inhibitory amount when immune cells co-injected ([8]; Raji, with vs without immune cells): 20 fold
